We go through two molecules from paper PMC8669397, “Cryo-EM structure of MukBEF reveals DNA loop entrapment at chromosomal unloading sites” (Molecular Cell, 2021).

The chains are these.
B1: P. thracensis MukE (natural protein, Photorhabdus thracensis)
chain: MSSTHIEQFMPVKLAQALANSLFPELDSQLRAGRHIGIDDLDNHAFLMDFQEQLEEFYARYNVELIRAPEGFFYLRPRSTTLIPRSVLSELDMMVGKILCYLYLSPERLANQGIFTSQELYEELISLADEGKLMKFVNQRSSGSDLDKQKLQEKVRTTLNRLRRLGMVYFLPNNNNKFTITEAVFRFGADVRSGDDPREIQLRMIRDGEAMPVEGSLSLDDSENDETPDNSAEGAGDEQP
notes: MukE, KITE subunit of MukBEF, Photorhabdus thracensis; also called KITE protein MukE; source: E. coli BL21-Gold(DE3), co-expressed with MukB and MukF (pFB403) or with MukF (pFB486); co-purified with MukB

What all share (experiment): cryo-EM structure; MukB^EQ2E4F2–AcpP2 and MukB^EQ2–AcpP2 at 10 μM each, 80-bp matS DNA and MatP2; buffer H30 with 1 mM ATP, 2 mM MgCl2, 0.05% β-octyl glucoside; MatP/DNA/ATP-bound and apo particles from the same sample
Data set [1] concerns the molecule itself.
In data set [2] the target is T1, P. thracensis MukB(E1407Q) (Photorhabdus thracensis, UniProt A0A0F7LRY2 1-1482, E1407Q).
T1 construct: MukB, SMC subunit of MukBEF, Photorhabdus thracensis, with E1407Q (slows ATP hydrolysis); Two copies in each MukBEF monomer (kappa-MukB and nu-MukB); also called MukB^EQ; kappa-MukB; source: E. coli BL21-Gold(DE3), pFB485, produced at 22°C; purified alone or with MukEF after mixing of cell pellets (Ni-NTA, hSENP1 elution, Q, Superose 6); not shown: His6-SUMO, N-terminal, cleaved
Conditions: both partners purified.

For the data set “P. thracensis MukE”, the target named is B1. The following applies: both partners purified.

As for B1, the binding result in data set [1] is “binds”.

B2: P. thracensis MatP (natural protein, Photorhabdus thracensis)
chain: MKYQQLENLECGWKWAYLIRKHQEGEPITKYIENSAAHAAVDKLIKLESEPVRVLEWIEQHMNPDLFNRMKQTIRARRKRHFNAEHQHTRKKSIDLDFPVWHRLSALSQRRGNTLSETIVQLIEDAERKEKYANQMSSLKHDLEAILGKNE
notes: cloned without tag; the C-terminal tetramerization tail is not visible; also called MatP2; source: E. coli BL21-Gold(DE3), pFB469, purified (HisTrap, Q flowthrough, SP)
On to B2, for which the binding result (in data set [2]; with P. thracensis MukE; in data set [1]) was “binds” in each case.
